Data as given in the RNAGym collection of RNA variant scans (doi:10.1073/pnas.2313332121).

B1: TPR t1 (parent)
chain: GACCAAUCUGCCCUCAGAGCUCGAGAACAUCUUCGGAUGCAGAGGAGGCAGGCUUCGGUGGCGCGAUAGCGCCAACGUCCUCAACCUCCAAUGCAUCCCACCACAUGAUGAUGCCUGAAGAGCCUUGGUUUUUUG

Variants of: B1
Experiment: polymerase ribozyme fitness, log enrichment relative to wild type (log ratio); higher = more active; in vitro selection for triplet polymerase activity
How it was run: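 Libraries of mutants in each subunit of a heterodimeric triplet polymerase ribozyme were generated by PCR and transcribed. In triplicate, each went through one in vitro selection round: annealing with biotinylated primer, partner subunit and triplets; frozen incubation at −7 °C; gel excision of extended constructs; streptavidin-bead capture; RT-PCR. Fitness, taken from Illumina sequencing of input and output libraries, is the logarithm of a genotype's enrichment over wild-type enrichment, averaged across replicates with inverse-variance weights. The logarithm is base 2, and genotypes needed ≥10 input reads and ≥1 read per output to be kept.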

Compared with G44A G52U G122A C123U C124G U130G, G45A C62A U112G C115G is lower in “polymerase ribozyme fitness (log ratio)” value: -1.46 for the first, -3.1 for the second.

Compared with G45A C70G G110C, A43C G57U G77U is higher in “polymerase ribozyme fitness (log ratio)” value: -6.17 for the first, -2.72 for the second.

Going from G45C C49U C97U A100U A121C U133C to A43U C114G G117C U126A, the “polymerase ribozyme fitness (log ratio)” value falls from -0.146 to -5.06.

Going from A43U G45U C115G to G44U A95G C99U, the “polymerase ribozyme fitness (log ratio)” value falls from -3.44 to -4.84.

Going from G45C C86G C102U G120U to A43U G93C G117A, the “polymerase ribozyme fitness (log ratio)” value rises from -7.48 to -4.2.

First: G45A A103U
Second: G45A G69A
The “polymerase ribozyme fitness (log ratio)” value of the first is lower: -7.16 for the first, -3.01 for the second.

First: G45A C72U A74U
Second: G45C C115A U130C
The “polymerase ribozyme fitness (log ratio)” value of the first is higher: -1.2 for the first, -2.49 for the second.

Compared with A43C G48C C72G C102G, G44U A95U G117C is higher in “polymerase ribozyme fitness (log ratio)” value: -7.62 for the first, -4.64 for the second.

Compared with A43C G63A, G44C G69U U78C A95U C101U is higher in “polymerase ribozyme fitness (log ratio)” value: -4.15 for the first, -0.81 for the second.

Going from G44A G45U G61U A83C to G45A C49A C94U G110A C124G, the “polymerase ribozyme fitness (log ratio)” value falls from -1.59 to -1.89.

First: G44A G71C
Second: G44A G57A A91G C101G G113U
The “polymerase ribozyme fitness (log ratio)” value of the first is higher: -2.21 for the first, -4.86 for the second.

First: G45C G69U C82A G127A
Second: G44A C49U G71A G117C U133G
The “polymerase ribozyme fitness (log ratio)” value of the first is higher: -3.34 for the first, -5.02 for the second.

Compared with A43G C56U, G45A C114U is lower in “polymerase ribozyme fitness (log ratio)” value: -1.77 for the first, -2.37 for the second.

Going from A43U C56G G71U G120A to G45A G69U C99U A111G, the “polymerase ribozyme fitness (log ratio)” value rises from -4.58 to -0.775.

Compared with G44A G61U, G44U A121U is higher in “polymerase ribozyme fitness (log ratio)” value: -0.0446 for the first, 0.755 for the second.

Compared with G44A A46U C85U C86G, A43U G113A is higher in “polymerase ribozyme fitness (log ratio)” value: -4.71 for the first, -1.27 for the second.

Compared with G44U A68G C85A, G44A A50G C73U is higher in “polymerase ribozyme fitness (log ratio)” value: -5.43 for the first, -0.0837 for the second.

Compared with A43U G45A C56G G113A, A43G C72U U112C G122U is lower in “polymerase ribozyme fitness (log ratio)” value: -0.304 for the first, -0.894 for the second.

Compared with G44U C56A, A43G C56G C82A A84C C114U is lower in “polymerase ribozyme fitness (log ratio)” value: -1.54 for the first, -3.15 for the second.

Going from A43G C70U G120U G128U to A43G G57U C88A C104A G120U, the “polymerase ribozyme fitness (log ratio)” value falls from -3.88 to -5.76.

Going from A43U G47U C72U U92A C104G C114G to G44U C53A G63A G113A, the “polymerase ribozyme fitness (log ratio)” value rises from -7.84 to -2.93.

Compared with G45C U54C C73A U81A G93C A111C, G45A C99A is lower in “polymerase ribozyme fitness (log ratio)” value: -4.76 for the first, -6.7 for the second.

Going from A43G U55C C62U U109A G135C to G44A C124A, the “polymerase ribozyme fitness (log ratio)” value rises from -5.8 to 0.456.

First: G44A U55A C70A
Second: G44A G113A U130C
The “polymerase ribozyme fitness (log ratio)” value of the first is lower: -3.95 for the first, -2.43 for the second.

First: G44U G63C U78A
Second: A43U C104A A118U
The “polymerase ribozyme fitness (log ratio)” value of the first is higher: -0.651 for the first, -4.29 for the second.

First: G44U C89G
Second: G44U A50U
The “polymerase ribozyme fitness (log ratio)” value of the first is higher: -0.509 for the first, -2.28 for the second.

Going from G44A C94U U126G to G44C C99U G110A, the “polymerase ribozyme fitness (log ratio)” value falls from -2.82 to -6.64.

Compared with G44A C70U C89A A100U U133C, G45C C62U is higher in “polymerase ribozyme fitness (log ratio)” value: -3.92 for the first, -1.63 for the second.

Going from G44A U59A G60U C89U A91G C104A C114U to G44C C72U U78G C115G U133G, the “polymerase ribozyme fitness (log ratio)” value rises from -6.21 to -1.84.

Going from A43G C115A G135C to G44U C56G U92A C115A, the “polymerase ribozyme fitness (log ratio)” value falls from -3.27 to -4.27.

Going from A43C C114U G122A to A43C G61C, the “polymerase ribozyme fitness (log ratio)” value falls from -3.24 to -5.34.

First: A43C G61U
Second: G45A C115A
The “polymerase ribozyme fitness (log ratio)” value of the first is lower: -2.24 for the first, -1.15 for the second.

G45C G69C U133A and G45A G48A C86A C89U are within 0.2 log units of each other in “polymerase ribozyme fitness (log ratio)” value: -2.27 for the first, -2.36 for the second.

Going from A43G U109A to G44U U59G G120A, the “polymerase ribozyme fitness (log ratio)” value rises from -6.81 to 0.601.

Compared with A43U G44A C115A C124A U125C U132A, A43G C82G U87C G93U is lower in “polymerase ribozyme fitness (log ratio)” value: 0.582 for the first, -6.73 for the second.

First: A43U C94A
Second: G44A G51C
The “polymerase ribozyme fitness (log ratio)” value of the first is higher: -1.82 for the first, -5.22 for the second.

Going from A43U C56A to A43U G63U G113U A119G, the “polymerase ribozyme fitness (log ratio)” value falls from -1.69 to -2.34.

First: G45C C89U
Second: A43G G61U C82G
The “polymerase ribozyme fitness (log ratio)” value of the first is higher: -1.92 for the first, -2.27 for the second.

Going from G45A G47U A66U C73A C82U to G44U A90G U132C, the “polymerase ribozyme fitness (log ratio)” value rises from -3.27 to -0.625.

Going from G45A G52A C89U U92A G120U to G44C C88U, the “polymerase ribozyme fitness (log ratio)” value rises from -3.99 to -0.458.

First: A43G C72A
Second: G45A C56G U78A G122A U129G
The “polymerase ribozyme fitness (log ratio)” value of the first is higher: -1.13 for the first, -1.63 for the second.

Compared with G45A C49A G110U, G44U C72U C115U U129G is lower in “polymerase ribozyme fitness (log ratio)” value: -2.18 for the first, -4.96 for the second.
